Test results: patent publication US20260078398A1, “PLANTS GENETICALLY ENGINEERED FOR INCREASED WATER USE EFFICIENCY AND CARBON INTAKE AND METHODS FOR MAKING AND USING THEM” (The Regents of the University of California, priority 2022, published 2026)

T1: MPK12 (recombinant Arabidopsis MAP kinase MPK12)
T1 chain: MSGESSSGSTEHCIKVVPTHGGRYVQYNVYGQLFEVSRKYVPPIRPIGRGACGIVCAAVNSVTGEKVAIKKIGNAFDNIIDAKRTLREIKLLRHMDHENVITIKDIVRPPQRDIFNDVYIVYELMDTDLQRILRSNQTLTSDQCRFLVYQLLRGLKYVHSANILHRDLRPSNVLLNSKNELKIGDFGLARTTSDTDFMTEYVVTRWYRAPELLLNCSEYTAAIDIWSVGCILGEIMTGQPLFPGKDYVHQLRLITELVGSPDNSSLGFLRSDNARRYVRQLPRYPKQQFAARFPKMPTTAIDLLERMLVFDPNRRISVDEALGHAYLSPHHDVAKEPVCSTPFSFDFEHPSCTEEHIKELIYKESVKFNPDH

T2: His-HT1 (recombinant Arabidopsis HT1 protein kinase, wild type, with His tag)
T2 chain: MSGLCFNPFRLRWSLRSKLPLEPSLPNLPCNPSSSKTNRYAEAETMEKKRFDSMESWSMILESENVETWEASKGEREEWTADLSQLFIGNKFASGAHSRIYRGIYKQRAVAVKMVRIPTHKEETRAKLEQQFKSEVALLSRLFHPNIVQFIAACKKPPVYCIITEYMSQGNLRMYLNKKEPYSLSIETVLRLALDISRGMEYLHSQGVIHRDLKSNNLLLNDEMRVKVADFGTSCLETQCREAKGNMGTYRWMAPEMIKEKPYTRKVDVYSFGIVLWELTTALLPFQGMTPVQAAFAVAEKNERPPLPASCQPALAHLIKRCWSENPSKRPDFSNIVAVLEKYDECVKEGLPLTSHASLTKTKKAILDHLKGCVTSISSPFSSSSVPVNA

T3: HT1-G89R (Arabidopsis, UniProt Q2MHE4 1-390)
T3 construct: Recombinant HT1 isoform; No tag is stated for the variant; the wild type in the same pull-down was His-HT1; also called ht1-G89R isoform
T3 sequence: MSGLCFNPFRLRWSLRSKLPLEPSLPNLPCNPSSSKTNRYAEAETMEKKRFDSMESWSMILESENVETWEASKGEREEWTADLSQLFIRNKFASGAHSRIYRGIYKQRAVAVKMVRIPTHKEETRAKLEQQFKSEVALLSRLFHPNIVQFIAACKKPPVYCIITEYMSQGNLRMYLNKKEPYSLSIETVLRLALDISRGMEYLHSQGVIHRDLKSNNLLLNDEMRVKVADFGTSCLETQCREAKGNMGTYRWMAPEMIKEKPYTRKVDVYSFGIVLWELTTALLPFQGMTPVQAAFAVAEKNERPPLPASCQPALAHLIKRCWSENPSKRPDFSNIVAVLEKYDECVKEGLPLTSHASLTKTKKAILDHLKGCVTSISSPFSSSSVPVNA

T4: HT1-R102K (Arabidopsis, UniProt Q2MHE4 1-390)
T4 construct: Recombinant HT1 isoform; No tag is stated for the variant
T4 sequence: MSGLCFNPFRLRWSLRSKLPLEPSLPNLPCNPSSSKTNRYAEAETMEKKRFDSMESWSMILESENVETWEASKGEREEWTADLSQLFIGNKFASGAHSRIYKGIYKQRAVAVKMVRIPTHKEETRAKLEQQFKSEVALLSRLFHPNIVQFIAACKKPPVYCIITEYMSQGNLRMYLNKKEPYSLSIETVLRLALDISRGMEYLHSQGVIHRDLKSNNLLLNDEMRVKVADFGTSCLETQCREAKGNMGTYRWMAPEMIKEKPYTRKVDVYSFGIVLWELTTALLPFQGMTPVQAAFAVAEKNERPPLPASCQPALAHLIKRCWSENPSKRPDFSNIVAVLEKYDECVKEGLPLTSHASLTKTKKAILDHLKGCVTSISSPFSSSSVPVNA

T5: HT1-A109V (Arabidopsis, UniProt Q2MHE4 1-390)
T5 construct: Recombinant HT1 isoform; No tag is stated for the variant; also called ht1-A109V isoform
T5 sequence: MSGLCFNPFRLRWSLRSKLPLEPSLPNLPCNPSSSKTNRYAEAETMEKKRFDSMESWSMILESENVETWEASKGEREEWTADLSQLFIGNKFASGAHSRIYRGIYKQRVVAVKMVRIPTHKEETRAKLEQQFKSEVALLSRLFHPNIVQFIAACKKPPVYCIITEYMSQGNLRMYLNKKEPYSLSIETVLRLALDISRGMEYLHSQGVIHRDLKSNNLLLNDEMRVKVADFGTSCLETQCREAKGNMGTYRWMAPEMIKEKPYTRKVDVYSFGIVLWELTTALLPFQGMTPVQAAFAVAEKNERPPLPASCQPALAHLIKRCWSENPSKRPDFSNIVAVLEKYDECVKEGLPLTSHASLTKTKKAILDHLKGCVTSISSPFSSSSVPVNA


What was measured:
[1] = target: T1, MPK12 (recombinant Arabidopsis MAP …)
[2] = system: MPK4/12, HT1 and CBC1 recombinant proteins; assay: in vitro phosphorylation assay: NaHCO3-dependent down-regulation of HT1-mediated CBC1 phosphorylation; assay type: biochemical, Arabidopsis; settings: isoform replaces wild type protein or is added; 20 mM NaHCO3 vs NaCl control, 30 min
Method: We tested whether this HT1-mediated activation of CBC1 is inhibited by CO2/bicarbonate by adding NaHCO3 in in vitro phosphorylation reactions. […]
FIG. 2. […] Histone was used as an artificial protein kinase substrate. • (B) MPK4, HT1 and CBC1 proteins were incubated with NaHCO3 at the indicated concentrations for 30 min, and in vitro phosphorylation assays were performed. • (C) CBC1 band intensities as shown in (B) were measured using IMAGEJ™, n=4 experiments, error bars show ±S.D. • (D) MPK4, HT1 and CBC1 proteins were incubated in reaction buffers adjusted at different pH (6.5 to 8.5) for 30 min, and in vitro phosphorylation assays were performed. • (E) CBC1 band intensities and the density-ratios of ‘+NaHCO3’ to ‘—NaHCO3’ (=+NaCl controls) for each pH condition
FIG. 3. […] Ambient CO2 concentrations are indicated by the top bars. n=7 experiments, error bars show ±SEM. • (C) Recombinant HT1 (wild type, HT1-G89R or HT1-R173Q) and CBC1 proteins were incubated with MPK4 in the presence or absence of 20 mM NaHCO3 or 20 mM NaCl (−controls) for 30 min, and in vitro phosphorylation assays were performed. • (D) Recombinant MPK12, CBC1 and HT1 (WT or R102K) proteins were incubated with or without 20 mM NaHCO3 or 20 mM NaCl (−controls) for 30 min, and in vitro phosphorylation assays were performed. Histone was used as an artificial kinase substrate. • (E) HT1 (WT or A109V) proteins were used for in vitro phosphorylation assays. Proteins were incubated with or without 20 mM NaHCO3 or 20 mM NaCl (−controls) for 30 min. • (F) Stomatal conductances were analyzed using intact plants of Arabidopsis (Col-0 (WT), cbc1 cbc2, ht1-A109V and cbc1 cbc2 ht1-A109V). CO2 concentration changes were applied as indicated on top (p.p.m.). […]

MPK4 and HT1 = assay: in vitro pull-down assay, His-HT1 with GST-MPK4; assay type: binding, Arabidopsis; settings: pull-down with or without 20 mM NaHCO3
Method: We therefore investigated a possible binding between MPK4 and HT1 and the effect of HCO3^−.
FIG. 4. […] CO2 concentration changes were applied as indicated on top (p.p.m.). n=6 experiments, error bars show ±SEM. • (J) Model of plant stomatal CO2 sensor and signaling (see text).
FIG. 6. […] Precipitated proteins were washed with buffers supplemented with NaHCO3 at the indicated concentrations (0, 2 or 20 mM). See FIG. 4d for an independent experiment. To control for effects of Na^+, 20 mM NaCl (0 mM NaHCO3) for lanes 1 and 4 were included in the buffers; and 18 mM NaCl (2 mM NaHCO3) for lane 3 were included in buffer.

[3] = target: T2, His-HT1 (recombinant Arabidopsis HT1 …)
HT1-G89R = target: T3, HT1-G89R; assay: in vitro pull-down with or without NaHCO3 (FIG. 4E, n=3)
Method: FIG. 4E illustrates gel protein separation images showing data where in vitro pull-down assays were performed using recombinant HT1 (wild type, HT1-G89R and HT1-R173Q) proteins;
FIG. 4. Bicarbonate inactivates HT1 kinase by stabilizing HT1 interaction with MPK4/12. [0265] (A) Recombinant CBC1, HT1 and MPK4 proteins are incubated with or without 20 mM NaHCO₃ for 30 min, and in vitro phosphorylation assays were performed. [0266] (B) CBC1 and HT1 proteins were incubated with or without 20 mM NaHCO₃ or 20 mM NaCl (“−” controls) in the presence or absence of MPK12 protein. [0267] (C) His-HT1 and GST-MPK4 or GST control proteins were used for in vitro pull-down assays with or without 20 mM NaHCO₃. NaHCO₃ or 20 mM NaCl (“−” controls) were supplemented in all buffers throughout the pull-down assay procedures including the washing step. [0268] […] [0269] (E) In vitro pull-down assays were performed using recombinant HT1 (wild type, HT1-G89R and HT1-R173Q) proteins. [0270] (F) In vitro pull-down assays were performed using HT1-R102K isoform. [0271] (G) In vitro pull-down assays were performed using HT1-A109V isoform. [0272] […] [0273] (I) Stomatal conductances were analyzed in leaves of intact Arabidopsis plants [Col-0 (WT), mpk 12, pGC1:MPK12-GFP/mpk12 and pGC1:MPK12 (K70R)-GFP/mpk12]. CO₂ concentration changes were applied as indicated on top (p.p.m.). n=6 experiments, error bars show ±SEM. [0274] […]

HT1-R102K = target: T4, HT1-R102K; assay: in vitro pull-down with or without NaHCO3 (FIG. 4F, n=3)
HT1-A109V = target: T5, HT1-A109V; assay: in vitro pull-down with or without NaHCO3 (FIG. 4G, n=3)

| binding result (HT1-G89R) | binding result (HT1-R102K) | binding result (HT1-A109V) | Molecule | NaHCO3-triggered down-regulation of CBC1 phosphorylation and CBC1 activity, in vitro phosphorylation assay with MPK12 and CBC1 (FIG. 3D, n=3) [1] | NaHCO3-mediated down-regulation of CBC1 phosphorylation/activity with the protein isoform in the reaction [2] | HCO3- dependent binding of HT1 isoform with MPK4 (MPK4 and HT1) | NaHCO3-triggered down-regulation of CBC1 phosphorylation and CBC1 activity, in vitro phosphorylation assay with MPK4/12 and CBC1 (FIG. 3E, n=4) (MPK4/12) | CBC1 and histone phosphorylation in vitro (HT1 + CBC1 + MPK4, 20 mM NaHCO3; FIG. 2A, n>6) [3] |
| --- | --- | --- | --- | --- | --- | --- | --- | --- |
|  |  |  | HT1-R102K (protein) MSGLCFNPFRLRWSLRSKLPLEPSLPNLPCNPSSSKTNRYAEAETMEKKRFDSMESWSMILESENVETWEASKGEREEWTADLSQLFIGNKFASGAHSRIYKGIYKQRAVAVKMVRIPTHKEETRAKLEQQFKSEVALLSRLFHPNIVQFIAACKKPPVYCIITEYMSQGNLRMYLNKKEPYSLSIETVLRLALDISRGMEYLHSQGVIHRDLKSNNLLLNDEMRVKVADFGTSCLETQCREAKGNMGTYRWMAPEMIKEKPYTRKVDVYSFGIVLWELTTALLPFQGMTPVQAAFAVAEKNERPPLPASCQPALAHLIKRCWSENPSKRPDFSNIVAVLEKYDECVKEGLPLTSHASLTKTKKAILDHLKGCVTSISSPFSSSSVPVNA | both of these R102K and A109V mutations disrupt the NaHCO3-triggered down-regulation of CBC1 phosphorylation and CBC1 activity | disrupt the NaHCO3-triggered down-regulation of CBC1 phosphorylation and CBC1 activity | did not show a bicarbonate-induced interaction of HT1 with MPK4 |  |  |
|  |  |  | HT1-A109V (protein) MSGLCFNPFRLRWSLRSKLPLEPSLPNLPCNPSSSKTNRYAEAETMEKKRFDSMESWSMILESENVETWEASKGEREEWTADLSQLFIGNKFASGAHSRIYRGIYKQRVVAVKMVRIPTHKEETRAKLEQQFKSEVALLSRLFHPNIVQFIAACKKPPVYCIITEYMSQGNLRMYLNKKEPYSLSIETVLRLALDISRGMEYLHSQGVIHRDLKSNNLLLNDEMRVKVADFGTSCLETQCREAKGNMGTYRWMAPEMIKEKPYTRKVDVYSFGIVLWELTTALLPFQGMTPVQAAFAVAEKNERPPLPASCQPALAHLIKRCWSENPSKRPDFSNIVAVLEKYDECVKEGLPLTSHASLTKTKKAILDHLKGCVTSISSPFSSSSVPVNA |  | disrupt the NaHCO3-triggered down-regulation of CBC1 phosphorylation and CBC1 activity | did not show a bicarbonate-induced interaction of HT1 with MPK4 | both of these R102K and A109V mutations disrupt the NaHCO3-triggered down-regulation of CBC1 phosphorylation and CBC1 activity |  |
| no binding | no binding | no binding | GST-MPK4 (recombinant Arabidopsis MAP kinase MPK4 with GST tag) (enzyme, The tag is placed at the N-terminus only because of the printed name GST-MPK4; The phosphorylation assays say only 'MPK4' and name no tag; also called AtMPK4; AT4G01370; not shown: GST tag) MSAESCFGSSGDQSSSKGVATHGGSYVQYNVYGNLFEVSRKYVPPLRPIGRGAYGIVCAATNSETGEEVAIKKIGNAFDNIIDAKRTLREIKLLKHMDHENVIAVKDIIKPPQRENFNDVYIVYELMDTDLHQIIRSNQPLTDDHCRFFLYQLLRGLKYVHSANVLHRDLKPSNLLLNANCDLKLGDFGLARTKSETDFMTEYVVTRWYRAPELLLNCSEYTAAIDIWSVGCILGETMTREPLFPGKDYVHQLRLITELIGSPDDSSLGFLRSDNARRYVRQLPQYPRQNFAARFPNMSAGAVDLLEKMLVFDPSRRITVDEALCHPYLAPLHDINEEPVCVRPFNFDFEQPTLTEENIKELIYRETVKFNPQDSV |  |  |  |  | when MPK4 or MPK12 were added to the reaction, we found that the addition of NaHCO3, but not NaCl, inhibited both CBC1 phosphorylation and histone phosphorylation in vitro |
